Molecular target: T1, recombinant human cathepsin O2 (Homo sapiens, UniProt P43235)
T1 construct: the mature protein spans from position 115 to 329 (215 amino acids); made in house; host or cells: Sf9 insect cells (baculovirus, pVL1392)
T1 sequence (P43235 115-329): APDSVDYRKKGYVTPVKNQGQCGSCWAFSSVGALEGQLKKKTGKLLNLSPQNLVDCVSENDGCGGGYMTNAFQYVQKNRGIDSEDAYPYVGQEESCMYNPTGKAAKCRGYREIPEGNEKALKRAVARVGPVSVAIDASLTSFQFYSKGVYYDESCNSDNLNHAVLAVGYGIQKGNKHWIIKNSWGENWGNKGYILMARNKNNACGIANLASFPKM
Assay: Inhibitor profile, fluorimetric enzyme assay with Z-FR-MCA
Type: biochemical
Method: Human cathepsin O2 was assayed with a fluorogenic substrate Z-FR-MCA (MCA, methyl coumarylamide) in 100 mM sodium acetate buffer, containing 2.5 mM dithioerythreitol and 2.5 mM EDTA. Initial rates of hydrolysis of the MCA-substrate are monitored in 1-cm cuvettes at 25° C. at an excitation wavelength at 380 nm and an emission wavelength at 450 nm. The concentration of Z-FR-MCA is 5 μM under standard conditions.
The inhibition of cathepsin O2 was assayed at a constant substrate (5 μM Z-FR-MCA) and enzyme concentration (1 nM) in the presence of different inhibitor concentrations in the substrate assay buffer. Cathepsin O2 was preincubated with the inhibitors for 10 min and the reaction was started with substrate. The residual activity was monitored and percent inhibition was calculated from the uninhibited rate.
The efficacy of protease class specific inhibitors to inhibit cathepsin O2 was determined by adding the inhibitor to the purified enzyme in a fluorimetric enzyme assay (described above).

B1: chicken cystatin: cysteine protease inhibitor (protein)
chain: SEDRSRLLGAPVPVDENDEGLQRALQFAMAEYNRASNDKYSSRVVRVISAKRQLVSGIKYILQVEIGRTTCPKSSGDLQSCEFHDEPEMAKYTTCTFVVYSIPWLNQIKLLESKCQ
% inhibition ([inhibitor] 0.1 μM): 100% | inhibition of enzyme activity (concentrations above 0.1 μM): completely inhibit

Reference: patent publication US6544767B1, “Cathespin O2 protease” (Axys Pharmaceuticals, Inc., priority 1994, dated 2003)
